From publication PMC9482650, “Quantitative fragmentomics allow affinity mapping of interactomes” (Nature Communications, 2022)

Key:
Assay in all cases: holdup assay
Set-up in all cases: key: below the threshold = too weak to quantify, mostly under pKd 3.1 to 4
LIN7C, Q9NUP9 = target: T1, LIN7C, Q9NUP9
T1 sequence (Q9NUP9 88-185, limits assumed, looked up): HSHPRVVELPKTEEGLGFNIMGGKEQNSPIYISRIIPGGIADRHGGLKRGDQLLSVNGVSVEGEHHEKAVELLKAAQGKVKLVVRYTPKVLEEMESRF

GORASP2, Q9H8Y8 = target: GORASP2, Q9H8Y8
DLG4_1, P78352 = target: DLG4_1, P78352
Sequence of DLG4_1, P78352 (P78352 62-152): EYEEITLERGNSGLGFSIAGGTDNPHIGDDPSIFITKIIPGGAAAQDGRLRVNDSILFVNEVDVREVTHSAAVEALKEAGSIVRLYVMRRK

CASK, O14936 = target: CASK, O14936
Sequence of CASK, O14936 (O14936 487-570): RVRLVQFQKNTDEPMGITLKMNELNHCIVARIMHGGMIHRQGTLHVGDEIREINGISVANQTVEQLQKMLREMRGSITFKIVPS

APBA1_1, Q02410 = target: T2, APBA1_1, Q02410
T2 sequence (Q02410 651-752, limits assumed, looked up): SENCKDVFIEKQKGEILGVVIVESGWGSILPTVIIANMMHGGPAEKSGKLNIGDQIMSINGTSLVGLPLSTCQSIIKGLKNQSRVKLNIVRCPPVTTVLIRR

MAGI2_3, Q86UL8 = target: MAGI2_3, Q86UL8
Sequence of MAGI2_3, Q86UL8 (Q86UL8 600-682): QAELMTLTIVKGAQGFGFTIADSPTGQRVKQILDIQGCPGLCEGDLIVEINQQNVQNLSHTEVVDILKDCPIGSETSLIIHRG

MPP7, Q5T2T1 = target: T3, MPP7, Q5T2T1
T3 sequence (Q5T2T1 134-230, limits assumed, looked up): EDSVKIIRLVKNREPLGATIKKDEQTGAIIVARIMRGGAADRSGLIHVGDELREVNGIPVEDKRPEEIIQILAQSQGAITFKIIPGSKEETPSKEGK

DLG3_2, Q92796 = target: T4, DLG3_2, Q92796
T4 sequence (Q92796 221-321, limits assumed, looked up): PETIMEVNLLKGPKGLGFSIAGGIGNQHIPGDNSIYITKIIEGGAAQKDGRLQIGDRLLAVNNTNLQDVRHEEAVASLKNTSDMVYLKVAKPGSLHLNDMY

GRIP1_3, Q9Y3R0 = target: T5, GRIP1_3, Q9Y3R0
T5 sequence (Q9Y3R0 247-346, limits assumed, looked up): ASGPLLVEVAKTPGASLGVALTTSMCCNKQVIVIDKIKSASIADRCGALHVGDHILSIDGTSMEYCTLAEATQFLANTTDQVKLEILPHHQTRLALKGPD

GRIP1_4, Q9Y3R0 = target: T6, GRIP1_4, Q9Y3R0
T6 sequence (Q9Y3R0 467-571, limits assumed, looked up): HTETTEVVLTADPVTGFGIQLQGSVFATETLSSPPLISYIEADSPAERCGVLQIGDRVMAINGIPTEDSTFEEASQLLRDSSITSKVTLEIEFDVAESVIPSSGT

LNX1_1, Q8TBB1 = target: LNX1_1, Q8TBB1
Sequence of LNX1_1, Q8TBB1 (Q8TBB1 261-371): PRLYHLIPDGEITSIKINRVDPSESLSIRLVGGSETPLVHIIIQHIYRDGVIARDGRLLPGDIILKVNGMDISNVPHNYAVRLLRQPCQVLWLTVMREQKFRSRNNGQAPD

LIN7B, Q9HAP6 = target: T7, LIN7B, Q9HAP6
T7 sequence (Q9HAP6 88-185, limits assumed, looked up): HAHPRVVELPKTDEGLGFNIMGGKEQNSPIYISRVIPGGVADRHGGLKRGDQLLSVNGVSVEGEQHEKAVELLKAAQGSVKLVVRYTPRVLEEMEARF

GIPC2, Q8TF65 = target: GIPC2, Q8TF65
Sequence of GIPC2, Q8TF65 (Q8TF65 112-203): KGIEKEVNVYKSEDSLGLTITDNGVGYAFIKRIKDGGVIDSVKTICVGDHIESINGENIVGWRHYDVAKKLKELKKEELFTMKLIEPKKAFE

NHERF4_2, Q86UT5 = target: NHERF4_2, Q86UT5
Sequence of NHERF4_2, Q86UT5 (Q86UT5 220-308): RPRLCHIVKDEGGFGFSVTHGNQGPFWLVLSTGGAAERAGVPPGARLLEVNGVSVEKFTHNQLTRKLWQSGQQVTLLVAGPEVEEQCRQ

GRIP2_5, Q9C0E4 = target: GRIP2_5, Q9C0E4
Sequence of GRIP2_5, Q9C0E4 (Q9C0E4 544-642): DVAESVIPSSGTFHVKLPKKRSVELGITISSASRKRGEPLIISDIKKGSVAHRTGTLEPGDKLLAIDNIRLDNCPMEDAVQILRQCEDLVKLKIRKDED

FRMPD4, Q14CM0 = target: FRMPD4, Q14CM0
Sequence of FRMPD4, Q14CM0 (Q14CM0 67-160): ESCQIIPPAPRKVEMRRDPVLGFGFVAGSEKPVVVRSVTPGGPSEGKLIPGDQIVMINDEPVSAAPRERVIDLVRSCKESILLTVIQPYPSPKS

DFNB31_2, Q9P202 = target: T8, DFNB31_2, Q9P202
T8 sequence (Q9P202 274-371, limits assumed, looked up): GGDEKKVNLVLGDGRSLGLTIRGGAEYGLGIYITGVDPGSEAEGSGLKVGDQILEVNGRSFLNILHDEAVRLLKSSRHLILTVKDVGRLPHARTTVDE

Inadl_2, Q8NI35 = target: Inadl_2, Q8NI35
Sequence of Inadl_2, Q8NI35 (Q8NI35 238-335): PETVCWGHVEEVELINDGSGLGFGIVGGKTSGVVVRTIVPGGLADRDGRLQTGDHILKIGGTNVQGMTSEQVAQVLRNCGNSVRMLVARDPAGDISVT

FRMPD3, Q5JV73 = target: FRMPD3, Q5JV73
Sequence of FRMPD3, Q5JV73 (Q5JV73 12-100): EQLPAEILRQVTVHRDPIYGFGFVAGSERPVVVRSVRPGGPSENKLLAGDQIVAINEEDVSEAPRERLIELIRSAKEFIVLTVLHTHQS

ARHGAP21, Q5T5U3 = target: T9, ARHGAP21, Q5T5U3
T9 sequence (Q5T5U3 45-169, limits assumed, looked up): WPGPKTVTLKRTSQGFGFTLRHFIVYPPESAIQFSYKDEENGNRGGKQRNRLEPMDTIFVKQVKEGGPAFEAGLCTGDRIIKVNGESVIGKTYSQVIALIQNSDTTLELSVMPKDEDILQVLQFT

GORASP1, Q9BQQ3 = target: GORASP1, Q9BQQ3
Sequence of GORASP1, Q9BQQ3 (Q9BQQ3 1-208): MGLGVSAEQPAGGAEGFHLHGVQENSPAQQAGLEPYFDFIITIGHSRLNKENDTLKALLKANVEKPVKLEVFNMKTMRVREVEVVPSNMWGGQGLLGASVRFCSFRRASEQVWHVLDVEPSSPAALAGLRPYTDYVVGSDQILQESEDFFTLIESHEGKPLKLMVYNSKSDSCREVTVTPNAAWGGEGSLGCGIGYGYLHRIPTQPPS

GRID2IP_1, A4D2P6 = target: GRID2IP_1, A4D2P6
Sequence of GRID2IP_1, A4D2P6 (A4D2P6 1-87): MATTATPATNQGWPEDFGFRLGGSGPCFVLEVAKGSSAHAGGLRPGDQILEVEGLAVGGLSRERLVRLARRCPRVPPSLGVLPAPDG

MAGI2_4, Q86UL8 = target: MAGI2_4, Q86UL8
Sequence of MAGI2_4, Q86UL8 (Q86UL8 772-865): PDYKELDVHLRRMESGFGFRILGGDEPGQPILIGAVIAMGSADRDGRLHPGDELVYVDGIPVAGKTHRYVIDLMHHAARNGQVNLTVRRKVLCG

HTRA3, P83110 = target: T10, HTRA3, P83110
T10 sequence (P83110 354-453, limits assumed, looked up): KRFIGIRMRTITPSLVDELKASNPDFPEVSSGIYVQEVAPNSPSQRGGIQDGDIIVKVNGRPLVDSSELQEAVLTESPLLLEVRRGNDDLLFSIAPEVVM

PDZRN3_1, Q9UPQ7 = target: T11, PDZRN3_1, Q9UPQ7
T11 sequence (Q9UPQ7 244-349, limits assumed, looked up): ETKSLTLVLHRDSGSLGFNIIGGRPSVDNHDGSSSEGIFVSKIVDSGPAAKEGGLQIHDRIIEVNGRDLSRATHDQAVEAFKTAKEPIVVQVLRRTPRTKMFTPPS

[1] = plain residues with an end cap or a label only (N-terminal biotin on a linker: ado-ado)
[2] = modified: phospho on T at position -2 from the C-terminal residue

## RRLPGKETMA [GRIK2, Q13002]
LIN7C, Q9NUP9; [1]
  pKd: below the threshold
GORASP2, Q9H8Y8; [1]
  pKd: 3.55
DLG4_1, P78352; [1]
  pKd: below the threshold
CASK, O14936; [1]
  pKd: below the threshold
APBA1_1, Q02410; [1]
  pKd: below the threshold
MAGI2_3, Q86UL8; [1]
  pKd: below the threshold
MPP7, Q5T2T1; [1]
  pKd: below the threshold
DLG3_2, Q92796; [1]
  pKd: 4.18
GRIP1_3, Q9Y3R0; [1]
  pKd: below the threshold
GRIP1_4, Q9Y3R0; [1]
  pKd: below the threshold
LNX1_1, Q8TBB1; [1]
  pKd: below the threshold
LIN7B, Q9HAP6; [1]
  pKd: 3.64
GIPC2, Q8TF65; [1]
  pKd: below the threshold
NHERF4_2, Q86UT5; [1]
  pKd: below the threshold
GRIP2_5, Q9C0E4; [1]
  pKd: below the threshold
FRMPD4, Q14CM0; [1]
  pKd: below the threshold
DFNB31_2, Q9P202; [1]
  pKd: below the threshold
Inadl_2, Q8NI35; [1]
  pKd: below the threshold
FRMPD3, Q5JV73; [1]
  pKd: below the threshold
ARHGAP21, Q5T5U3; [1]
  pKd: below the threshold
GORASP1, Q9BQQ3; [1]
  pKd: below the threshold
GRID2IP_1, A4D2P6; [1]
  pKd: below the threshold
MAGI2_4, Q86UL8; [1]
  pKd: below the threshold
HTRA3, P83110; [1]
  pKd: below the threshold
PDZRN3_1, Q9UPQ7; [1]
  pKd: below the threshold

## YNNCLEILRV [DCAF7, P61962]
LIN7C, Q9NUP9; [1]
  pKd: below the threshold
GORASP2, Q9H8Y8; [1]
  pKd: 5.55
DLG4_1, P78352; [1]
  pKd: below the threshold
CASK, O14936; [1]
  pKd: below the threshold
APBA1_1, Q02410; [1]
  pKd: below the threshold
MAGI2_3, Q86UL8; [1]
  pKd: below the threshold
MPP7, Q5T2T1; [1]
  pKd: below the threshold
DLG3_2, Q92796; [1]
  pKd: below the threshold
GRIP1_3, Q9Y3R0; [1]
  pKd: below the threshold
GRIP1_4, Q9Y3R0; [1]
  pKd: below the threshold
LNX1_1, Q8TBB1; [1]
  pKd: below the threshold
LIN7B, Q9HAP6; [1]
  pKd: below the threshold
GIPC2, Q8TF65; [1]
  pKd: below the threshold
NHERF4_2, Q86UT5; [1]
  pKd: below the threshold
GRIP2_5, Q9C0E4; [1]
  pKd: below the threshold
FRMPD4, Q14CM0; [1]
  pKd: below the threshold
DFNB31_2, Q9P202; [1]
  pKd: below the threshold
Inadl_2, Q8NI35; [1]
  pKd: 3.65
FRMPD3, Q5JV73; [1]
  pKd: below the threshold
ARHGAP21, Q5T5U3; [1]
  pKd: below the threshold
GORASP1, Q9BQQ3; [1]
  pKd: 4.74
GRID2IP_1, A4D2P6; [1]
  pKd: below the threshold
MAGI2_4, Q86UL8; [1]
  pKd: below the threshold
HTRA3, P83110; [1]
  pKd: below the threshold
PDZRN3_1, Q9UPQ7; [1]
  pKd: below the threshold

## SKPTRRETEV [HPV35-E6_-2P, P27228]
LIN7C, Q9NUP9; [2]
  pKd: 4.05
GORASP2, Q9H8Y8; [2]
  pKd: below the threshold
DLG4_1, P78352; [2]
  pKd: below the threshold
CASK, O14936; [2]
  pKd: below the threshold
APBA1_1, Q02410; [2]
  pKd: below the threshold
MAGI2_3, Q86UL8; [2]
  pKd: below the threshold
MPP7, Q5T2T1; [2]
  pKd: below the threshold
DLG3_2, Q92796; [2]
  pKd: below the threshold
GRIP1_3, Q9Y3R0; [2]
  pKd: below the threshold
GRIP1_4, Q9Y3R0; [2]
  pKd: below the threshold
LNX1_1, Q8TBB1; [2]
  pKd: below the threshold
LIN7B, Q9HAP6; [2]
  pKd: below the threshold
GIPC2, Q8TF65; [2]
  pKd: below the threshold
NHERF4_2, Q86UT5; [2]
  pKd: below the threshold
GRIP2_5, Q9C0E4; [2]
  pKd: below the threshold
FRMPD4, Q14CM0; [2]
  pKd: below the threshold
DFNB31_2, Q9P202; [2]
  pKd: below the threshold
Inadl_2, Q8NI35; [2]
  pKd: below the threshold
FRMPD3, Q5JV73; [2]
  pKd: below the threshold
ARHGAP21, Q5T5U3; [2]
  pKd: 4.08
GORASP1, Q9BQQ3; [2]
  pKd: below the threshold
GRID2IP_1, A4D2P6; [2]
  pKd: below the threshold
MAGI2_4, Q86UL8; [2]
  pKd: below the threshold
HTRA3, P83110; [2]
  pKd: below the threshold
PDZRN3_1, Q9UPQ7; [2]
  pKd: below the threshold
